Reference: patent US20150258192A1, “COMPOSITIONS AND METHODS FOR PREVENTING OR TREATING CHRONIC LUNG ALLOGRAFT DYSFUNCTION (CLAD) AND IDIOPATHIC PULMONARY FIBROSIS (IPF)” (priority 2014, published 2015)
No end group written: not given here.

Legend:
Assay in all cases: Kinase Profiling Assay
Format in all cases: biochemical
Conditions in all cases: peptide 100 μM
Arg(h) = Arg(h) (Homo sapiens, UniProt P42684)
Method in brief: (§1)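 Specificity of MK2 inhibitory peptides is assessed against a panel of 266 human kinases. Kinase transfers a radiolabeled phosphate from ATP onto a positively charged substrate, which is trapped on a negatively charged filter and quantified by scintillation counting against full-activity control; duplicate determinations.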

DCAMKL2(h) = molecular target: T1, DCAMKL2(h) (Homo sapiens, UniProt Q8N568)
T1 sequence (Q8N568 1-766): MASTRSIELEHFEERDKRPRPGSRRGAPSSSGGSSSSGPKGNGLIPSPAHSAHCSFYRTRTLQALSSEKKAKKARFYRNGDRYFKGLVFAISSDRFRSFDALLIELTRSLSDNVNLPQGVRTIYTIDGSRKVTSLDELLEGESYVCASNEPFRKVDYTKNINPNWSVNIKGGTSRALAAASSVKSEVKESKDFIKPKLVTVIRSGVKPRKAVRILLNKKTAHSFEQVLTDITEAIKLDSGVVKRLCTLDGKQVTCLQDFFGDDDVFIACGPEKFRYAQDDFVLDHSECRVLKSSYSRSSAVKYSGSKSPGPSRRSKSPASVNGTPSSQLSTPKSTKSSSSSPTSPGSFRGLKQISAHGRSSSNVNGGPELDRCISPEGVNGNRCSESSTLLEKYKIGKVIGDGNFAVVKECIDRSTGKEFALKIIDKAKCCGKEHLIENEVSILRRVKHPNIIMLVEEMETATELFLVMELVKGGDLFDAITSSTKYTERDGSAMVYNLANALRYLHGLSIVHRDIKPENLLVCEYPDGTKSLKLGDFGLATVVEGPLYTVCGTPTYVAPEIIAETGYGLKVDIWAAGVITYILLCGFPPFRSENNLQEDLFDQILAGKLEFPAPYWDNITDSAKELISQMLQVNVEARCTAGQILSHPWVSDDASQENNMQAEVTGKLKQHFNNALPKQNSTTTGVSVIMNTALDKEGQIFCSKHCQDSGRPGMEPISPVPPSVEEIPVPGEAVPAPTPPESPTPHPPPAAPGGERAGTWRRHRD
Method in brief: as §1

Flt4(h) = Flt4(h) (Homo sapiens, UniProt P35916)
Method in brief: as §1

GRK6(h) = molecular target: T2, GRK6(h) (Homo sapiens, UniProt P43250)
T2 construct: purchased Millipore
Method in brief: as §1

MAPKAP-K3(h) = molecular target: T3, MAPKAP-K3(h) (Homo sapiens, UniProt Q16644)
T3 construct: purchased Millipore
Method in brief: as §1

Met(M1268T)(h) = molecular target: T4, Met(M1268T)(h) (Homo sapiens, UniProt P08581, M1250T)
T4 construct: purchased Millipore
Method in brief: as §1

NLK(h) = molecular target: T5, NLK(h) (Homo sapiens, UniProt Q9UBE8)
T5 construct: purchased Millipore
T5 sequence (Q9UBE8 1-527): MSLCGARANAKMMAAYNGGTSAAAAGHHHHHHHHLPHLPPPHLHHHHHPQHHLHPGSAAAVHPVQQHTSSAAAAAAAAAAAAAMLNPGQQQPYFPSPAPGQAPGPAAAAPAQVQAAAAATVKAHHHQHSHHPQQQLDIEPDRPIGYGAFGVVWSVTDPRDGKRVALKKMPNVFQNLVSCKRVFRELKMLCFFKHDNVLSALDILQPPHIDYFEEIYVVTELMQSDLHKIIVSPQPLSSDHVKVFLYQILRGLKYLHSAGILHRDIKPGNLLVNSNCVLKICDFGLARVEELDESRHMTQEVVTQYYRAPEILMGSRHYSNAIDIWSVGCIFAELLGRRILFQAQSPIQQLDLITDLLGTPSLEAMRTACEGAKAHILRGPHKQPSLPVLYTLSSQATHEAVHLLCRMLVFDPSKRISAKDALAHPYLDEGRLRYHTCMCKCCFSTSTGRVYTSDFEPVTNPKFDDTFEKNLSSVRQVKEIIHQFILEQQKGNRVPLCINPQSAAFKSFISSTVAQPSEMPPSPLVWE
Method in brief: as §1

PAK2(h) = molecular target: T6, PAK2(h) (Homo sapiens, UniProt Q13177)
T6 construct: purchased Millipore
Method in brief: as §1

Pim-2(h) = Pim-2(h) (Homo sapiens, UniProt Q9P1W9)
Method in brief: as §1

Ret(V804L)(h) = Ret(V804L)(h) (Homo sapiens, UniProt P07949, V804L)
Method in brief: as §1

SAPK2a(T106M)(h) = molecular target: T7, SAPK2a(T106M)(h) (Homo sapiens, UniProt Q16539, T106M)
T7 construct: purchased Millipore
Method in brief: as §1

ULK3(h) = molecular target: T8, ULK3(h) (Homo sapiens, UniProt Q6PHR2)
T8 sequence (Q6PHR2 1-472): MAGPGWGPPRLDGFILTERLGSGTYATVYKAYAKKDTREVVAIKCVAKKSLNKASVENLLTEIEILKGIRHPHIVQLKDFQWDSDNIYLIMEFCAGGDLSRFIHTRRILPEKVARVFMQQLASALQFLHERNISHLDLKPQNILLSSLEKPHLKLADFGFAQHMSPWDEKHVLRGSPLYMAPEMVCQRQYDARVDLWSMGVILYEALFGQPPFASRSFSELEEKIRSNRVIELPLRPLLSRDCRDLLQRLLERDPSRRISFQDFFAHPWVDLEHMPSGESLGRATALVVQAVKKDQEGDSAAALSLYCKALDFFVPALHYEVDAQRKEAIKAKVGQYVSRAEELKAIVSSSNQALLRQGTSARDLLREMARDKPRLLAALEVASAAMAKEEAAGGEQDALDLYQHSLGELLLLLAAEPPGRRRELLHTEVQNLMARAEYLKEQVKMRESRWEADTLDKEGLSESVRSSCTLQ
Method in brief: as §1

cKit(V654A)(h) = cKit(V654A)(h) (Homo sapiens, UniProt P10721, V654A)
Method in brief: as §1

mTOR(h) = molecular target: T9, mTOR(h) (Homo sapiens, UniProt P42345)
T9 construct: purchased Millipore
Method in brief: as §1

mTOR/FKBP12(h) = molecular target: T10, mTOR/FKBP12(h) (Homo sapiens, UniProt P42345)
T10 construct: purchased Millipore
Method in brief: as §1

Sequence of Pim-2(h) (Q9P1W9 whole entry): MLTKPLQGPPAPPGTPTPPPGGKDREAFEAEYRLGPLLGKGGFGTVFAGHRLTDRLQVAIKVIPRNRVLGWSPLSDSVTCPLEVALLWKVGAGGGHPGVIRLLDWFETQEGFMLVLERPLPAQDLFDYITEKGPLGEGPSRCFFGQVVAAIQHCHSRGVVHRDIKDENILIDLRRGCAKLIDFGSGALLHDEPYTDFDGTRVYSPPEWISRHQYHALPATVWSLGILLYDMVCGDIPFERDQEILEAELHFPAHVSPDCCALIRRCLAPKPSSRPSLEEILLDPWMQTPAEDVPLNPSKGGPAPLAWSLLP
T2 sequence (P43250 whole entry): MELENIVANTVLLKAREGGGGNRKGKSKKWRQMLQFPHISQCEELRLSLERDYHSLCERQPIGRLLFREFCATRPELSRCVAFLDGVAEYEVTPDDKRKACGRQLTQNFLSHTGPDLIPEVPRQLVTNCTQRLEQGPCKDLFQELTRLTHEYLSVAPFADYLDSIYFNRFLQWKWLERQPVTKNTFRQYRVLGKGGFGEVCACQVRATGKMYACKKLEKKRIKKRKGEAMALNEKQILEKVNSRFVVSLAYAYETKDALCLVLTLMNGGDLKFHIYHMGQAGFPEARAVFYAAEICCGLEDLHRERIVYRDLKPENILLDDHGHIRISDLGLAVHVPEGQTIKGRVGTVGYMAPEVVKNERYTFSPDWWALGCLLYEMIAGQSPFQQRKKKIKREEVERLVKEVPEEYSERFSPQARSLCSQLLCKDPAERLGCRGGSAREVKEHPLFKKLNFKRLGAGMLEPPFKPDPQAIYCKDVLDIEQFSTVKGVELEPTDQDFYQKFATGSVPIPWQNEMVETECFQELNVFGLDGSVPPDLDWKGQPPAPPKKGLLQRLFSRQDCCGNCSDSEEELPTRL
T3 sequence (Q16644 whole entry): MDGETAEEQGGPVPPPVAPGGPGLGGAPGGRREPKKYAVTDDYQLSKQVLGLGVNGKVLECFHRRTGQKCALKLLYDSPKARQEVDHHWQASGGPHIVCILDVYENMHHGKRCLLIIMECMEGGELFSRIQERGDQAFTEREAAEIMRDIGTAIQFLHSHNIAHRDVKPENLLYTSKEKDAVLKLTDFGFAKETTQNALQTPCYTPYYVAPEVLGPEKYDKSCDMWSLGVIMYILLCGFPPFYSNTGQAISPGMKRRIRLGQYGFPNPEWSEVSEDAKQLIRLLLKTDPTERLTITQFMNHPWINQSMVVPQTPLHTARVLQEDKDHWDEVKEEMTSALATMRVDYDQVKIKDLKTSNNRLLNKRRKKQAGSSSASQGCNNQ
T6 sequence (Q13177 whole entry): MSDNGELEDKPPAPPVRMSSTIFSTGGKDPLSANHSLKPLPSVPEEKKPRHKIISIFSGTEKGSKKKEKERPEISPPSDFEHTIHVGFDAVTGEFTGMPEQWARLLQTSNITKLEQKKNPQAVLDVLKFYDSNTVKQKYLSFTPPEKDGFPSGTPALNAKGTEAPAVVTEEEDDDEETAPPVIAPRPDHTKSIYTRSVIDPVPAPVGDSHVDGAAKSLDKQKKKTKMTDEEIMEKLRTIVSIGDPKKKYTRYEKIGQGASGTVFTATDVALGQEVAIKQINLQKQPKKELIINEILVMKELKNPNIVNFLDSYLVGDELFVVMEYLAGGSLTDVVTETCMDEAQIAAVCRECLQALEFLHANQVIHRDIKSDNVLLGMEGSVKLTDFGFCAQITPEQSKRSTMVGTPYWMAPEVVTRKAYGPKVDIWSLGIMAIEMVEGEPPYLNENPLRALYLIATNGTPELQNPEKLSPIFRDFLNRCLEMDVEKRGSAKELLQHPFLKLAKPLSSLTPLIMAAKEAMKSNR
Sequence of Arg(h) (P42684 whole entry): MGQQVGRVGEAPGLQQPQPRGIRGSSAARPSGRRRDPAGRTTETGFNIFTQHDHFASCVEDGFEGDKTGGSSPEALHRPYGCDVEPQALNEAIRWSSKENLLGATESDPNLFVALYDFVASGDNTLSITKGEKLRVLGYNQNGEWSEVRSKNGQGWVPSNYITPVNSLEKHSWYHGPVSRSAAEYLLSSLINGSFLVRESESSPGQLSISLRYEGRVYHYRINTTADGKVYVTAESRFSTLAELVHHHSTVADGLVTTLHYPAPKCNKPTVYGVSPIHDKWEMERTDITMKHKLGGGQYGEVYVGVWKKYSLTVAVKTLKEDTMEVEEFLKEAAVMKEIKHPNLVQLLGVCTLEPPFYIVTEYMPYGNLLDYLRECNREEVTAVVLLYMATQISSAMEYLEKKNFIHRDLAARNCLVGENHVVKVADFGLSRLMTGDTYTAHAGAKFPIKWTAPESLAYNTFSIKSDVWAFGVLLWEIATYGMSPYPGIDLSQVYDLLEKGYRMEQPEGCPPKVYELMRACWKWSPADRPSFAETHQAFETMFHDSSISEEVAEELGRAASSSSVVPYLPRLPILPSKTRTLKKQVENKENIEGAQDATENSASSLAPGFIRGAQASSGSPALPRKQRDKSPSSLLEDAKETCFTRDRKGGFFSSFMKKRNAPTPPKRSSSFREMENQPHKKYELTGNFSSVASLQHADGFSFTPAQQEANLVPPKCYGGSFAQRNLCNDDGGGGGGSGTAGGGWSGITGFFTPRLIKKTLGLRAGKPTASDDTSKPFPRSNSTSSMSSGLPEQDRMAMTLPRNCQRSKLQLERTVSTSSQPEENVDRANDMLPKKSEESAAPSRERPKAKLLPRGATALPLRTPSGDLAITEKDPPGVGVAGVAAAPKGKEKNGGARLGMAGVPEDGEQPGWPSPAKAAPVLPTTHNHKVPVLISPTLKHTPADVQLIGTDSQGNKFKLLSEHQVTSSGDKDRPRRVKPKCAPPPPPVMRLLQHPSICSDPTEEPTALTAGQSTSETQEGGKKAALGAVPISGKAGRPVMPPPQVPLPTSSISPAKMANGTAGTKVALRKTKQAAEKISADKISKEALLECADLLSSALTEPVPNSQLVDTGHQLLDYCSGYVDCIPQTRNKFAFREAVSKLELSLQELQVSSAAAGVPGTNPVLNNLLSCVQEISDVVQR
Sequence of Flt4(h) (P35916 25-1363): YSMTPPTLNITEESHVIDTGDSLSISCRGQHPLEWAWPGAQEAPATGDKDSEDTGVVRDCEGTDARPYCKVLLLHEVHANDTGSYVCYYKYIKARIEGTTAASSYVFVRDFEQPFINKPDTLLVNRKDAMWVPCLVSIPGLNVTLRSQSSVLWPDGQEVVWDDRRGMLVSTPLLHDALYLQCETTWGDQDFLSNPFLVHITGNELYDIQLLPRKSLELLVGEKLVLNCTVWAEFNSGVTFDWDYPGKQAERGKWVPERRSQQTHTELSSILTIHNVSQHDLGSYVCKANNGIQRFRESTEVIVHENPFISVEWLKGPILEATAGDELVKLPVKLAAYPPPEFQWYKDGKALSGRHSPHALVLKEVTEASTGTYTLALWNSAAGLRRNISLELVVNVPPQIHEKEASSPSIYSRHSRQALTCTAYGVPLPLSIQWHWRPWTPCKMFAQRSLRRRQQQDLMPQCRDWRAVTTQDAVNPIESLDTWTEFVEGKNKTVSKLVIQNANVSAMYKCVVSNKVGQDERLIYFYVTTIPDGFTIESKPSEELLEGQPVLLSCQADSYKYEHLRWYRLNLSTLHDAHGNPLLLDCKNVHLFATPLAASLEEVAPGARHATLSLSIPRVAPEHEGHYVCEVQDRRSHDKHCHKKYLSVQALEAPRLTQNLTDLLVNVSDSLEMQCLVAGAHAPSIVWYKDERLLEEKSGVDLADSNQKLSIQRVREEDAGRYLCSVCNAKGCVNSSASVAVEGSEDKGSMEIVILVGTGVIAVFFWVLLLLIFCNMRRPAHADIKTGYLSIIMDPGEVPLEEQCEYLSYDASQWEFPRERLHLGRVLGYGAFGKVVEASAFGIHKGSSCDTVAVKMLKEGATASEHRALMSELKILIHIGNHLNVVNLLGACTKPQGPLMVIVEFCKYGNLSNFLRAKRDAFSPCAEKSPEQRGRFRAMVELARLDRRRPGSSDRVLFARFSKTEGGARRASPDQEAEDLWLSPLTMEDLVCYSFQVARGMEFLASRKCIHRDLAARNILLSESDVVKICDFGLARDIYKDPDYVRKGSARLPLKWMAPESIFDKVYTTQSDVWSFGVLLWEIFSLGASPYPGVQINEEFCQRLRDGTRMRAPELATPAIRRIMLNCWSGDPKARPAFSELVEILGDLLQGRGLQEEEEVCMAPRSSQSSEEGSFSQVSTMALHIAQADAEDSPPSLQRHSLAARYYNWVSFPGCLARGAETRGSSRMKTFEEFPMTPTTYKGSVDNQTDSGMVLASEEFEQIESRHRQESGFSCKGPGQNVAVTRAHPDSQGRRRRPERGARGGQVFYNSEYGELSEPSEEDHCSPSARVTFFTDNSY
T7 sequence (Q16539 whole entry T106M): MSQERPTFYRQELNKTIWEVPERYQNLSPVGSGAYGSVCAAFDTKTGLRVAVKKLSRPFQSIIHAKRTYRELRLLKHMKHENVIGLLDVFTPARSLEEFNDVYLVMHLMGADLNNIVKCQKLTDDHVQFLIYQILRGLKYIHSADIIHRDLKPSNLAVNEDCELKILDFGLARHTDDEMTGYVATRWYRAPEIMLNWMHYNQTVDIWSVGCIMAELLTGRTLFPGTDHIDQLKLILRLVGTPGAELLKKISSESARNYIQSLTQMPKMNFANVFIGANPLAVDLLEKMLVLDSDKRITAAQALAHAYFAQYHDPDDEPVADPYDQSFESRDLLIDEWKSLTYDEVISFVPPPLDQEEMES

| Sequence | % activity (Arg(h)) [%] | % activity (DCAMKL2(h)) [%] | % activity (Flt4(h)) [%] | % activity (GRK6(h)) [%] | % activity (MAPKAP-K3(h)) [%] | % activity (Met(M1268T)(h)) [%] | % activity (NLK(h)) [%] | % activity (PAK2(h)) [%] | % activity (Pim-2(h)) [%] | % activity (Ret(V804L)(h)) [%] | % activity (SAPK2a(T106M)(h)) [%] | % activity (ULK3(h)) [%] | % activity (cKit(V654A)(h)) [%] | % activity (mTOR(h)) [%] | % activity (mTOR/FKBP12(h)) [%] |
| --- | --- | --- | --- | --- | --- | --- | --- | --- | --- | --- | --- | --- | --- | --- | --- |
| FAKLAARLYRKALARQLGVAA [MMI-0300] | 72 | 81 | 83 | 147 | 3 | 255 | 87 | 65 | 76 | 79 | 97 | 167 | 134 | 91 | 145 |
| HRRIKAWLKKIKALARQLGVAA (Mammal) [MMI-0500] | 22 | 56 | 73 | 174 | 9 | 239 | 19 | 44 | 46 | 20 | 32 | 177 | 223 | 135 | 140 |
| KAFAKLAARLYRKALARQLGVAA [MMI-0400] | 84 | 70 | 89 | 141 | 7 | 265 | 90 | 59 | 92 | 73 | 99 | 147 | 150 | 93 | 125 |
| YARAAARQARAKALARQLGVAA [MMI-0100] |  | 146 | 135 | 131 | 27 |  | 100 | 71 |  |  | 101 | 142 | 69 |  |  |
| YARAAARQARAKALNRQLGVA (Mammal) [MMI-0200] | 82 | 131 |  | 132 | 39 | 143 |  | 69 | 74 | 100 | 100 | 164 |  | 110 | 118 |
